In US20260193644A1, “Compositions and Methods For Modulation of Tumor Suppressors and Oncogenes” (FLAGSHIP PIONEERING INNOVATIONS VII, LLC, priority 2022, published 2026):
No end group written: not given here.

Tests used:
Type in all cases: cell-based
[1] = test system: HCT116 colon cancer cell line; test: Maestro Z impedance-based assay on HCT116 cells stably over-expressing target protein; details: 2 days
Description: Over-expression: Stable over-expression tumor cell lines were made by transduction using lentivirus. For virus production, HEK-293T cells were cultured in DMEM with high glucose and GlutaMAX™ medium (ThermoFisher) supplemented with 10% FBS. After 24 h, cells were transfected using lipofectamine 3000 (ThermoFisher) of Lentiviral packaging plasmid mix (CELLECTA) and pGenLenti plasmids (GenScript Inc) containing: 1) no insert, 2) Target Protein encoding sequence, and 3) the AP2A1 protein (positive control for cell proliferation; https://doi.org/10.1038/sj.one.1205216), into HCT116 (Colon cancer cell line; ATCC). A Myc-tag (EQKLISEEDL) was added to the c-terminus of the expressed protein. After 48 hr post-transfection, culture media containing viruses was collected, loaded onto a 10 ml syringe and filtered through a 0.45 μm filter. […]
Maestro Z Impedance-based assay: The Maestro Z platform (Axion Biosystems) uses impedance measurements (ohms, (2) to quantify the presence of cells on the electrode. Since impedance is noninvasive and label-free, impedance assay is used to quantify dynamic cellular growth over time. For impedance recording, cells were seeded in 96 well assay plate, and the plate was docked in the Maestro Z and the automatic environment controls set the chamber to 37° C. and 5% CO2. Impedance measurements were recorded every minute for the 2 days.

[2] = biological target: CXCR4 (Homo sapiens, UniProt P61073); test: PathHunter β-Arrestin CXCR4 human chemokine GPCR antagonist assay (gpcrMAX screening and hit-confirmation); details: for % inhibition: hit-confirmation
Description: SEQ ID NO: 30949 blocks CXCR4 and cancer cell migration, making it suitable in the treatment of multiple cancers. Whereas SEQ ID NO: 34229 agonizes C3AR1, a key regulator of immune response and inflammation. The target proteins SEQ ID NO: 30949 and SEQ ID NO: 34229 were treated with gpcrMAX, which is a comprehensive panel covering 168 G protein-coupled receptors (GPCRs) from over 60 distinct receptor families. This panel utilizes PathHunter® β-Arrestin technology (Eurofins DiscoverX). PathHunter β-Arrestin GPCR cell lines are engineered to co-express the ProLink™ (PK) tagged GPCR and the Enzyme Acceptor (EA) tagged β-Arrestin. Activation of the GPCR-PK induces β-Arrestin-EA recruitment, forcing complementation of the two β-galactosidase enzyme fragments (EA and PK). The resulting functional enzyme hydrolyzes substrate to generate a chemiluminescent signal.
Cell Handling: PathHunter® cell lines were expanded from freezer stocks according to standard procedures. Cells were seeded in a total volume of 20 μL into white walled, 384-well microplates and incubated at 37° C. for the appropriate time prior to testing. […]
Signal Detection: Assay signal was generated through a single addition of 12.5 or 15 μL (50% v/v) of PathHunter® Detection reagent cocktail, followed by a one-hour incubation at room temperature. Microplates were read following signal generation with a PerkinElmer Envision™ instrument for chemiluminescent signal detection.
Data Analysis: Compound activity was analyzed using CBIS data analysis suite (ChemInnovation, CA). For agonist mode assays, percentage activity was calculated using the following formula: % Activity=100%×(mean RLU of test sample−mean RLU of vehicle control)/(mean MAX control ligand−mean RLU of vehicle control). For antagonist mode assays, percentage inhibition was calculated using the following formula: % Inhibition=100%×(1−(mean RLU of test sample−mean RLU of vehicle control)/(mean RLU of EC80 control−mean RLU of vehicle control)).

[3] = test system: NAMALWA cells; test: Chemotaxis assay (trans-well cell migration); details: NAMALWA human Burkitt lymphoma cells; 24 hours; SDF-1 (CXCL-12)
Description: Chemotaxis Assay: NAMALWA cells (human Burkitt lymphoma cell line, ATCC) were cultured in serum-free ATCC formulated RPMI for 24 hr prior to the assay. After starvation, harvest cells and centrifuge at 1,000×g, for 5 minutes to pellet them. Resuspend the cell in a serum-free media. Using Cell Migration/Chemotaxis Assay Kit (96-well, 8 μm) from Abcam, add 150 μL of serum-free media containing desired chemoattractant to the bottom chamber. Then add 50,000 cells and desired inhibitor (or peptides) to each well of the top chamber. Place the plate and incubate at 37° C. in CO2 incubator for 24 hours. After incubation, add 110 μL of Cell Dye+Cell Dissociation Solution mix to each bottom well and incubate at 37° C. in CO2 incubator for an hour. After incubation remove the top chamber and read the plate at Ex/Em=530/590 nm.

[4] = test system: Jurkat cells; test: Caspase-Glo 3/7 apoptosis assay, peptide-treated Jurkat cells; details: listed = significant
Description: Cell Culture: Tumor cell lines HCT-116 (Colon Cancer Cell line, ATCC) and U2OS (Osteoscarcoma Cell line, ATCC) cells were grown adherently in ATCC-formulated McCoy's 5a medium supplemented with 10% FBS and 1× penicillin-streptomycin at 37° C. (5% CO2). Jurkat cells (acute T-cell leukemia cell line, ATCC) were grown as suspension cultures in ATCC-formulated RPMI-1640 supplemented with 10% FBS and 1× penicillin-streptomycin at 37° C. (5% CO2). HEP-G2 cells (Liver Cancer Cell line, ATCC) cells were grown adherently in ATCC-formulated Eagle's Minimum Essential Medium (EMEM) supplemented with 10% FBS and 1× penicillin-streptomycin at 37° C. (5% CO2).
Peptide Treatment: Target protein SEQ ID NO: 37997 was synthesized through Fluorenylmethyloxycarbonyl (Fmoc) protection group chemistry using Solid Phase Peptide Synthesis (SPPS). 5 μM of target peptide and control peptides were added to a 96 well plate containing 10,000 cells (100 μL/well). A white-walled 96-well plate adequate for cell culture and compatible with the luminometer was used. (Corning)
Apoptosis Assay: Following 24 hrs of peptide treatment, an equal volume reconstituted Caspase-Glo® 3/7 assay reagent mixture (Promega) was added to the cells. The contents of wells were gently mixed using a plate shaker at 300-500 rpm for 30 seconds. The plate was then Incubate at room temperature for 3 hours. The treated plates were then read for luminescence on Promega™ GloMax® Plate Reader. A blank reaction that contained caspase-Glo® 3/7 reagent, vehicle and cell culture medium without cells was used to measure background luminescence. The blank reaction values were subtracted from experimental values. A negative control that contained caspase-Glo® 3/7 reagent and vehicle-treated cells in medium was included to determine the basal caspase activity of the cell culture system. Significant difference in apoptosis was determined using ANOVA analysis by comparing cells treated with SEQ ID NO: 37997 peptide to cells treated with an irrelevant control peptide, or vehicle control treated cells.

[5] = test system: HepG2 cells; test: Caspase-Glo 3/7 apoptosis assay, peptide-treated HepG2 cells; details: listed = significant
Description: Cell Culture: Tumor cell lines HCT-116 (Colon Cancer Cell line, ATCC) and U2OS (Osteoscarcoma Cell line, ATCC) cells were grown adherently in ATCC-formulated McCoy's 5a medium supplemented with 10% FBS and 1× penicillin-streptomycin at 37° C. (5% CO2). Jurkat cells (acute T-cell leukemia cell line, ATCC) were grown as suspension cultures in ATCC-formulated RPMI-1640 supplemented with 10% FBS and 1× penicillin-streptomycin at 37° C. (5% CO2). HEP-G2 cells (Liver Cancer Cell line, ATCC) cells were grown adherently in ATCC-formulated Eagle's Minimum Essential Medium (EMEM) supplemented with 10% FBS and 1× penicillin-streptomycin at 37° C. (5% CO2). […]
Apoptosis Assay: Following 24 hrs of peptide treatment, an equal volume reconstituted Caspase-Glo® 3/7 assay reagent mixture (Promega) was added to the cells. […] The treated plates were then read for luminescence on Promega™ GloMax® Plate Reader. A blank reaction that contained caspase-Glo® 3/7 reagent, vehicle and cell culture medium without cells was used to measure background luminescence. […] Significant difference in apoptosis was determined using ANOVA analysis by comparing cells treated with SEQ ID NO: 37997 peptide to cells treated with an irrelevant control peptide, or vehicle control treated cells.

[6] = test system: HCT116 colon cancer cell line; test: WST-1 proliferation assay on HCT116 cells stably over-expressing target protein; details: low serum (0.1% FBS); 48 hours
Description: Over-expression: Stable over-expression tumor cell lines were made by transduction using lentivirus. For virus production, HEK-293T cells were cultured in DMEM with high glucose and GlutaMAX™ medium (ThermoFisher) supplemented with 10% FBS. After 24 h, cells were transfected using lipofectamine 3000 (ThermoFisher) of Lentiviral packaging plasmid mix (CELLECTA) and pGenLenti plasmids (GenScript Inc) containing: 1) no insert, 2) Target Protein encoding sequence, and 3) the AP2A1 protein (positive control for cell proliferation; https://doi.org/10.1038/sj.one.1205216), into HCT116 (Colon cancer cell line; ATCC). A Myc-tag (EQKLISEEDL) was added to the c-terminus of the expressed protein. After 48 hr post-transfection, culture media containing viruses was collected, loaded onto a 10 ml syringe and filtered through a 0.45 μm filter. For cell transduction, HCT116 colorectal cancer cells were seeded in 6-well plates, the virus was added to the cells. After post-transduction, stable cell mixed populations are selected for with puromycin for 14 days. Expression of the Target Protein and controls are confirmed by immunoblot of 50 μg of cell lysate using anti-myc-tag polyclonal antibody (CST).
Proliferation: Polyclonal cell lines that over-express the Target Protein or control, wild-type HCT-116 cells, were plated in 96 well plate (10,000 or 5,000 cells per well) grown in standard media in both low serum (0.1% FBS) and high serum (10% FBS) conditions, respectively. After 48 hours, the cells are subjected to the WST-1 ([…]) assay. The WST-1 assay (Sigma) is a measure of the metabolic activity of group of cells. The higher the metabolic activity the higher the proliferation rate. Significant differences in proliferation are determined by comparing protein-expressing cell lines with a stable cell line of the empty expression vector (control) using ANOVA analysis.

Chain of CXCR4 (P61073 whole entry): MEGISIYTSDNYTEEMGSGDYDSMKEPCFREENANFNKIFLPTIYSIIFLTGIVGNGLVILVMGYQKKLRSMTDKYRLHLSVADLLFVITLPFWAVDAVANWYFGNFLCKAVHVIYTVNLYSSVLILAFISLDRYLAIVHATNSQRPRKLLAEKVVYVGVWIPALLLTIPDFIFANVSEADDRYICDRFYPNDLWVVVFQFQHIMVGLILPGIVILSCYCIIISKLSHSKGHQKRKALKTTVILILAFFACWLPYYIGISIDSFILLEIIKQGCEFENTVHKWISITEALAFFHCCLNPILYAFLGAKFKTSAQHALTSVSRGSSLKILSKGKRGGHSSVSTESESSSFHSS

SEQ ID NO: 30462: target protein over-expressed (Myc-tagged) in stable HCT116 cell line; oncogene (METFEIFYLKCIRVNLISRQLNTFFLAVLLVVCMPCFHSVCTGKRT; cysteine pairing not given here; also: Myc tag; listed as Homo sapiens)
proliferation over time (impedance) on over-expression vs Empty Vector [1]: significantly increases proliferation

SEQ ID NO: 30949: novel peptide GPCR ligand that blocks CXCR4; sequence only in Sequence Listing (MTAFGLGIPTFLVMQPSGSQPRFPALTQNGVALVRTPLTSVYLRVRICRVLGPRSQPS; listed as Homo sapiens)
GPCR ligand mode at CXCR4 ([2]; gpcrMAX panel): blocked CXCR4 | % inhibition ([2]; 0.3 μM): ~ 80% | % inhibition ([2]; 1 μM): ~ 80% | chemotactic migration [3]: significantly inhibit the chemotactic migration

SEQ ID NO: 34224: ORF peptide; sequence only in Sequence Listing (MSFDHPEKNGPWPADPINLPSHG; listed as Homo sapiens)
peptides inducing significant apoptosis vs vehicle control [4]: SEQ ID NO: 34224 | z-score compared to vehicle control (peptides inducing significant apoptosis) [5]: SEQ ID NO: 34224

B1: SEQ ID NO: 26966: ORF peptide; sequence only in Sequence Listing (peptide, listed as Homo sapiens)
chain: VSPRFLVLKSSPAHRDSDSPQTPRLRVMESRTLLLLFSGAVALIQTWADYNYNQGRNDLIFTLQLWKRQ
z-score compared to vehicle control (peptides inducing significant apoptosis) [5]: SEQ ID NO: 26966

B2: AP2A: published oncoprotein, over-expressed positive control for cell proliferation (protein, UniProt O95782 1-977, looked up)
AP-2 complex subunit alpha-1: MPAVSKGDGMRGLAVFISDIRNCKSKEAEIKRINKELANIRSKFKGDKALDGYSKKKYVCKLLFIFLLGHDIDFGHMEAVNLLSSNKYTEKQIGYLFISVLVNSNSELIRLINNAIKNDLASRNPTFMCLALHCIANVGSREMGEAFAADIPRILVAGDSMDSVKQSAALCLLRLYKASPDLVPMGEWTARVVHLLNDQHMGVVTAAVSLITCLCKKNPDDFKTCVSLAVSRLSRIVSSASTDLQDYTYYFVPAPWLSVKLLRLLQCYPPPEDAAVKGRLVECLETVLNKAQEPPKSKKVQHSNAKNAILFETISLIIHYDSEPNLLVRACNQLGQFLQHRETNLRYLALESMCTLASSEFSHEAVKTHIDTVINALKTERDVSVRQRAADLLYAMCDRSNAKQIVSEMLRYLETADYAIREEIVLKVAILAEKYAVDYSWYVDTILNLIRIAGDYVSEEVWYRVLQIVTNRDDVQGYAAKTVFEALQAPACHENMVKVGGYILGEFGNLIAGDPRSSPPVQFSLLHSKFHLCSVATRALLLSTYIKFINLFPETKATIQGVLRAGSQLRNADVELQQRAVEYLTLSSVASTDVLATVLEEMPPFPERESSILAKLKRKKGPGAGSALDDGRRDPSSNDINGGMEPTPSTVSTPSPSADLLGLRAAPPPAAPPASAGAGNLLVDVFDGPAAQPSLGPTPEEAFLSELEPPAPESPMALLADPAPAADPGPEDIGPPIPEADELLNKFVCKNNGVLFENQLLQIGVKSEFRQNLGRMYLFYGNKTSVQFQNFSPTVVHPGDLQTQLAVQTKRVAAQVDGGAQVQQVLNIECLRDFLTPPLLSVRFRYGGAPQALTLKLPVTINKFFQPTEMAAQDFFQRWKQLSLPQQEAQKIFKANHPMDAEVTKAKLLGFGSALLDNVDPNPENFVGAGIIQTKALQVGCLLRLEPNAQAQMYRLTLRTSKEPVSRHLCELLAQQF
proliferation over time (impedance) on over-expression vs Empty Vector [1]: significantly increases proliferation | proliferation (WST-1) on over-expression vs Empty Vector [6]: significantly increases proliferation
